Test results published in article PMC3605141, “NODULE INCEPTION Directly Targets NF-Y Subunit Genes to Regulate Essential Processes of Root Nodule Development in Lotus japonicus”.

T1: NIN(520-878)-myc (C-ter) (Lotus japonicus) (UniProt Q9S7B1)
T1 sequence: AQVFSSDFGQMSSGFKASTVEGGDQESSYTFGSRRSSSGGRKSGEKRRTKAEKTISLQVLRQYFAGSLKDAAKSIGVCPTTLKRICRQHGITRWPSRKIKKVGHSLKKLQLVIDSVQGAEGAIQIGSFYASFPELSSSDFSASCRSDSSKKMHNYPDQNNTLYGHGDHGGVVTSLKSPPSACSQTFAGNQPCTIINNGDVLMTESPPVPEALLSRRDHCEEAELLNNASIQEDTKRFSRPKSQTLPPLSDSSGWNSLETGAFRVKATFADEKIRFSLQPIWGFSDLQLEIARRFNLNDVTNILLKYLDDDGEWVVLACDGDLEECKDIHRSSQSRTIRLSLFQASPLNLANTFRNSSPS

T2: NIN-myc (Full) (Lotus japonicus) (UniProt Q9S7B1)
T2 sequence: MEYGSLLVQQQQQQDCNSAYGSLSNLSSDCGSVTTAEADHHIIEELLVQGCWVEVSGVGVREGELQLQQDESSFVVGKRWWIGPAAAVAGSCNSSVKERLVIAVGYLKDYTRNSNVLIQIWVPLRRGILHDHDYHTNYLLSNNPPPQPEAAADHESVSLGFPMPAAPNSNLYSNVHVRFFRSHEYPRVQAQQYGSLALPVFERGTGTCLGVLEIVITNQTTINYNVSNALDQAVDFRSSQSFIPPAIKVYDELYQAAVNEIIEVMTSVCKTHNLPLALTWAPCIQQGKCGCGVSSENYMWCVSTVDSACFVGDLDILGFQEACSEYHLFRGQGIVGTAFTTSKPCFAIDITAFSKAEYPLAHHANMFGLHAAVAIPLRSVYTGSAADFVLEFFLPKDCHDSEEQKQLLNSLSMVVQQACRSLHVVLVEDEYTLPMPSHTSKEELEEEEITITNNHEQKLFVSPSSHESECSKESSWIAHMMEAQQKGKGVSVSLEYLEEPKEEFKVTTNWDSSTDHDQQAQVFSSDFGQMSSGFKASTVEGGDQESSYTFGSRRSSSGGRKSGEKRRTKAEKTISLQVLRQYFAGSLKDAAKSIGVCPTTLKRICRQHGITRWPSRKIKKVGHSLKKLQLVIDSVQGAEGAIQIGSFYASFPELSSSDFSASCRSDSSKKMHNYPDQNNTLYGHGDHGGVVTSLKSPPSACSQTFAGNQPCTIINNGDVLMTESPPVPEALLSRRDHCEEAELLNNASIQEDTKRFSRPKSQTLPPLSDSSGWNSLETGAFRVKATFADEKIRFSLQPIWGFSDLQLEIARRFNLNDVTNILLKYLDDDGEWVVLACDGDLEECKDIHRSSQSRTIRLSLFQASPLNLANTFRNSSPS


Legend:
[1] = target: T1, NIN(520-878)-myc (C-ter) (Lotus japonicus); assay: EMSA; details: 20 mM Hepes-KOH pH 7.9, 50 mM KCl, 1 mM MgCl2, 1 mM DTT, 4% glycerol, 0.1% Triton X-100, 2 ug BSA, 400 ng dIdC, 20 ul, 30 min at room temperature; 10-30 fmol …
[2] = target: T2, NIN-myc (Full) (Lotus japonicus); assay: EMSA; details: 20 mM Hepes-KOH pH 7.9, 50 mM KCl, 1 mM MgCl2, 1 mM DTT, 4% glycerol, 0.1% Triton X-100, 2 ug BSA, 400 ng dIdC, 20 ul, 30 min at room temperature; 10-30 fmol …
NIN(520-878)-myc (C-ter) = NIN(520-878)-myc (C-ter) (Lotus japonicus, UniProt Q9S7B1 520-878); assay: EMSA; 20 mM Hepes-KOH pH 7.9, 50 mM KCl, 1 mM MgCl2, 1 mM DTT, 4% glycerol, 0.1% Triton X-100, 2 ug BSA, 400 ng dIdC, 20 ul, 30 min at room temperature; 10-30 fmol 32P probe; details: protein: ivt, tags: myc

Molecule	binding [1]	binding result (NIN(520-878)-myc (C-ter); label: 32P)	other results
TCACTTTGGTGGATGTGGATATACAATTCTTTACTTTCAATACAAAAAACC (double strand) [LjNF-YB1 probe 16]	no binding		
GAGAAAATGCTAGTTTTTAAAAAGAGAACCTTTATTTTTTTAAATATTGTATTTACGAAGAAAACTGAAAAAGAACAGATGATTTCAGTTAGATTGCTTGGCCCCCTTCTTATCTGGACAGGCATTTTCCTG (double strand) [LjNF-YA1 probe 9]	binds		binding [2]: binds
TCACTTTGGTGGATGTGGATATACAATTCTTTACTTTCAATACAAAAAACCCCATCAATTTACTTGTATCTTTAGAGCTTTCCAAGGGATATTTC (double strand) [LjNF-YB1 probe 10]	binds		binding [2]: binds
GGCCTTTGAGGCCGCTCAAAAGAGTGAAGATGAATATGAAAT (double strand) [LjNF-YB1 probe 12]	no binding		
GTTAATGGATGCTGAGAAGGCCTTTGAGGCCGCTCAAAAGAGTGAAGATGAATATGAAATATCCCTTGGAAAGCTCTAAAG (double strand) [LjNF-YB1 probe 9]	binds		binding [2]: binds
AAAGAGTGAAGATGAATATGAAATATCCCTTGGAAAGCTCTAAAG (double strand) [LjNF-YB1 probe 13]	no binding		
TACAATTCTTTACTTTCAATACAAAAAACCCCATCAATTTACTTGTATCTTTAG (double strand) [LjNF-YB1 probe 15]	no binding		
TCTTTTGAGCGGCCTCAAAGGCCTTCTCAGCATCCATTAAC (double strand) [LjNF-YB1 probe 11]	no binding		
probe 14 m3 (dsDNA) DNA 1: AAACCCCATCAATTTACTTGTTAGAAAAGAGCTTTCCAAGGGATATTTC DNA 2: GAAATATCCCTTGGAAAGCTCTTTTCTAACAAGTAAATTGATGGGGTTT		no binding	
probe 14 m5 (dsDNA) DNA 1: AAACCCCATCAATTTACTTGTATCTTTAGAGCTTTCCAACCCTATTTTC DNA 2: GAAAATAGGGTTGGAAAGCTCTAAAGATACAAGTAAATTGATGGGGTTT		no binding	
NBS-yB1a m8 (dsDNA) DNA 1: TACTTGTATCAAAAGAGCTTTCCAAGGGATATTTC DNA 2: GAAATATCCCTTGGAAAGCTCTTTTGATACAAGTA		no binding	
NBS-yB1a m12 (dsDNA) DNA 1: TACTTGTATCTTTAGAGCTTTCGTTGGGATATTTC DNA 2: GAAATATCCCAACGAAAGCTCTAAAGATACAAGTA			binding result (NIN(520-878)-myc (C-ter); label: 32P as probe): no binding
NBS-yB1a m13 (dsDNA) DNA 1: TACTTGTATCTTTAGAGCTTTCCAACCCATATTTC DNA 2: GAAATATGGGTTGGAAAGCTCTAAAGATACAAGTA		no binding	
NBS-yB1a m14 (dsDNA) DNA 1: TACTTGTATCTTTAGAGCTTTCCAAGGGTATTTTC DNA 2: GAAAATACCCTTGGAAAGCTCTAAAGATACAAGTA		no binding	
